Test results published in US7854918B2, “Composition for medical use having improved water-solubility of peptide and metal-labeling efficiency and preparation for medical use comprising metal-labeled peptide” (Nihon Medi-Physics Co., Ltd., priority 2004, dated 2010).
“Also recorded” adds a separate entry of the source. Square brackets hold non-standard residues; d marks the D form. Ends that are not written are not given here. * marks the point of attachment. Nle = CCCC[C@H](N)C(=O)O; For = O=C*

Experiments:
Type in all cases: physicochemical
[1] = External observation of peptide sample solutions (presence or absence of white turbidity)
Method: (§1) Peptide 1, Peptide 2, and Peptide 3 (100 μg each) were separately added to 410 mM arginine solutions (pH 11) to adjust each total amount to 700 μL. Molarities in these solutions are 94 μM (Peptide 1), 99 μM (Peptide 2), and 161 μM (Peptide 3). […] Then, 200 μL each of the sample solutions was filtered with a filter Millex (registered trademark)-GV (trade name, manufactured by Nihon Millipore) with a pore size of 0.22 μm. The sample solutions before filtration and the sample solutions after filtration were respectively analyzed by reverse-phase HPLC. Peak area percentages were determined from the peak area values of the peptides before and after filtration and used as elution rates. HPLC analytical conditions are shown below.
(§2) For a comparative example, Peptide 1, Peptide 2, and Peptide 3 were separately dissolved in each of water and dimethylsulfoxide (DMSO) to prepare samples having a peptide concentration of 94 μM, 99 μM, or 161 μM, which were studied in the same way as above.
(§3) Arginine, lysine, and histidine were separately dissolved in water to prepare 410 mM arginine solution, 489 mM lysine solution, and 90 mM histidine solution. An aqueous solution of sodium hydroxide and hydrochloric acid were added to these solutions to adjust the pH of the aqueous solutions of lysine and histidine to 8, 9, 10, and 11, and the pH of the aqueous solution of arginine to 8, 8.5, 9, 9.5, 10, and 11. Subsequently, Peptide 1 was added to these aqueous solutions to prepare 94 μM Peptide 1 solutions. […] Then, 200 μL each of the sample solutions was filtered with a filter Millex (registered trademark)-GV (trade name, manufactured by Nihon Millipore) with a pore size of 0.22 μm. The sample solutions before filtration and the sample solutions after filtration were respectively analyzed by reverse-phase HPLC. Peak area percentages were determined from the peak area values of Peptide 1 before and after filtration and used as elution rates. HPLC analytical conditions were the same as the conditions described in Example 1.
(§4) Imidazole was dissolved in water to prepare 1 mM imidazole solution. pH was adjusted to 8, 8.5, and 9 by adding an appropriate amount of hydrochloric acid to this solution. Subsequently, Peptide 1 was added to these imidazole solutions to prepare 94 μM Peptide 1 solutions. […] Then, 200 μL each of the sample solutions was filtered with a filter Millex (registered trademark)-GV (trade name, manufactured by Nihon Millipore) with a pore size of 0.22 μm. The sample solutions before filtration and the sample solutions after filtration were respectively analyzed by reverse-phase HPLC. Peak area percentages were determined from the peak area values of Peptide 1 before and after filtration and used as elution rates. HPLC analytical conditions were the same as the conditions described in Example 1.
(§5) Disodium hydrogen phosphate, sodium dihydrogen citrate, sodium ascorbate, and imidazole were separately dissolved in water to prepare their respective aqueous solutions with pH 9 at concentrations described in Table 4. pH adjustment was performed with hydrochloric acid and an aqueous solution of sodium hydroxide. The above-described aqueous solutions were separately added to the weighed Peptide 1 to prepare 94 μM Peptide 1 solutions. […] These Peptide 1 solutions were compared with the Peptide 1 sample solutions using the respective aqueous solutions of disodium hydrogen phosphate, sodium dihydrogen citrate, and sodium ascorbate used as comparative controls. Subsequently, 200 μL each of the sample solutions was filtered with a filter Millex (registered trademark)-GV (trade name, manufactured by Nihon Millipore) with a pore size of 0.22 μm. The sample solutions before filtration and the sample solutions after filtration were respectively analyzed by reverse-phase HPLC. […]

[2] = Elution rate: reverse-phase HPLC peak area of the peptide after vs before 0.22 μm filtration
Method: as §1, §2
Column: Cosmosil 5C18-AR-300 (Manufactured by Nacalai Tesque, 4.6×150 mm)
(§6) Detection: ultraviolet and visible spectrophotometer (detection wavelength: 220 nm)
HPLC system: Alliance (manufactured by Waters, Japan)
Eluant A: 0.1% trifluoroacetic acid (hereinafter, TFA)/purified water
(§7) Eluant B: 0.1% TFA/acetonitrile
(§8) Concentration gradient: 0 min (Eluant B 20%)→25 min (Eluant B 70%)
as §3, §4
as §5, with “controls.” for “controls. Subsequently, 200 μL each of the sample solutions was filtered with a filter Millex (registered trademark)-GV (trade name, manufactured by Nihon Millipore) with a pore size of 0.22 μm. The sample solutions before filtration and the sample solutions after filtration were respectively analyzed by reverse-phase HPLC.”

[3] = Tc-99m labeling at room temperature, radiochemical purity by HPLC
Method: (§9) Peptide 1 was dissolved in the aqueous solution of arginine with pH 10 obtained in Example 2 to prepare 9.4 μM peptide/arginine solution. 25 μL of a solution of 10 mL of 0.01 M hydrochloric acid supplemented with 5 mg of stannous chloride solution was added to 700 μL of the peptide/arginine solution, and 0.6 to 1.0 GBq of Tc-99m-sodium pertechnetate (hereinafter, 99 mTcO4^−) solution was quickly added thereto to adjust the total amount to 1 mL. After the labeling procedure, the peptide concentration was diluted to 6.6 μM. After shaking for several seconds, the solution was reacted at room temperature. A portion thereof was taken on 10 minutes and 90 minutes after the labeling procedure to determine each Tc-99m labeling rate by HPLC and TLC. The HPLC and TLC analyses were performed under conditions described below.
(§10) For comparative controls, Peptide 1 was dissolved in dimethylsulfoxide (DMSO) and then diluted 10-fold with 100 mM phosphate buffer solution (hereinafter, PB) with pH 10 to prepare a peptide/DMSO/PB solution with the final peptide concentration of 9.4 μM. Alternatively, Peptide 1 was dissolved in PB to prepare a peptide/PB solution with the final peptide concentration of 9.4 μM. These solutions were labeled in the same way as in the peptide/arginine solution to determine each Tc-99m labeling rate by HPLC and TLC. After the labeling procedure, the peptide concentration was diluted to 6.6 μM.
Column: Cosmosil 5C18-AR-300 (manufactured by Nacalai Tesque, 4.6×150 mm)
as §6
Radioactivity detector: STEFFI NaI scintillator (manufactured by Raytest)
Eluant A: 0.1% TFA/purified water
as §7, §8

[4] = Tc-99m labeling at room temperature, radiochemical purity by TLC
Method: as §9, §10
Plate: Silica Gel 60F254 (manufactured by Merck)
Developing solvent: 28% ammonia water/acetonitrile=½
Radioactivity detector: Gita NaI scintillator (manufactured by Raytest)
12.5, 25, and 50 mg of arginine was weighed, then dissolved in water, and adjusted with hydrochloric acid to pH 10 to adjust each total amount to 700 μL. Molarities in these solutions are 102.5 mM, 205 mM, and 410 mM, respectively. Peptide 1 was dissolved in these aqueous solutions of arginine to prepare respective 9.4 μM peptide/arginine solutions. 25 μL of a solution of 10 mL of 0.01 M hydrochloric acid supplemented with 5 mg of stannous chloride solution was added to each of the peptide/arginine solutions, and 0.6 to 1.0 GBq of 99 mTcO4^− solution was quickly added thereto to adjust each total amount to 1 mL. After shaking for several seconds, the solutions were reacted at room temperature. A portion thereof was taken on 30 minutes, 90 minutes, 180 minutes, 360 minutes, 24 hours, and 30 hours after the labeling procedure to determine each radiochemical purity by TLC analysis under the conditions described in Example 5.

[5] = 410 mM arginine solution, pH 11, peptide 94/99/161 μM
[6] = solvent DMSO, peptide 94/99/161 μM
[7] = solvent water, peptide 94 μM (Peptide 1), 99 μM (Peptide 2), 161 μM (Peptide 3)
[8] = 1 mM imidazole, pH 8, 94 μM peptide
[9] = 90 mM histidine, pH 9, 94 μM peptide
[10] = 100 mM disodium hydrogen phosphate, pH 9, 94 μM peptide
[11] = 410 mM arginine, pH 9, 94 μM peptide
[12] = 489 mM lysine, pH 9, 94 μM peptide
[13] = aqueous solutions of arginine, lysine and histidine at pH 9 or more
[14] = Tc-99m labeling in DMSO/phosphate buffer solution pH 10, room temperature, 10 minutes
[15] = Tc-99m labeling in DMSO/phosphate buffer solution pH 10, room temperature, 90 minutes
[16] = Tc-99m labeling in phosphate buffer solution pH 10, room temperature, 10 minutes

formyl-Met-Leu-Phe-Lys-ε(-Gly-Asp-Ac—S-Bzl) (For-MLFKGD; not fully specified (C-terminus); printed as formyl-Met-Leu-Phe-Lys-ε(-Gly-Asp-Ac—S-Bzl); also: Gly-Asp attached through Lys epsilon-amino (branch)) [Peptide 3]
Appearance [1, 5]: Colorless, | Appearance [1, 6]: Colorless, | Appearance [1, 7]: Whitish | Elution rate [2, 5]: 101.3% | Elution rate [2, 6]: 108.5%

formyl-Nle-Leu-Phe-Nle-Tyr-Lys(NH2)-ε(-Ser-D-Arg-Asp-Cys-Asp-Asp) (For-[Nle]LF[Nle]YKS[dR]DCDD; also: Lys(NH2): Lys α-carboxamide, Ser-D-Arg-Asp-Cys-Asp-Asp branch on Lys ε-amine) [Peptide 1]
Appearance [1, 8]: colorless and transparent | Appearance ([1]; 1 mM imidazole, pH 8.5, 94 μM peptide): colorless and transparent | Appearance ([1]; 1 mM imidazole, pH 9, 94 μM peptide): colorless and transparent | Appearance [1, 9]: colorless, transparent | Appearance [1, 10]: colorless, transparent | Appearance ([1]; 243 mM sodium dihydrogen citrate, pH 9, 94 μM peptide): white turbidity; also recorded: Whitish | Appearance ([1]; 401 mM sodium ascorbate, pH 9, 94 μM peptide): white turbidity; also recorded: Whitish | Appearance [1, 5]: Colorless, | Appearance ([1]; 410 mM arginine, pH 8, 94 μM peptide): Evident white turbidity | Appearance [1, 11]: colorless, transparent | Appearance [1, 12]: colorless, transparent | Appearance ([1]; aqueous solutions of arginine, lysine and histidine at pH 8.5 or less): Weak white turbidity | Appearance [1, 13]: colorless, transparent | Appearance [1, 6]: Colorless, | Appearance [1, 7]: Whitish | Elution rate [2, 8]: 64.9% | Elution rate [2, 9]: 85.9% | Elution rate ([2]; 90 mM histidine, pH 10, 94 μM peptide): 90.7% | Elution rate ([2]; 90 mM histidine, pH 11, 94 μM peptide): 96.7% | Elution rate [2, 10]: 53.8% | Elution rate [2, 5]: 100.8% | Elution rate ([2]; 410 mM arginine, pH 8.5, 94 μM peptide): 43.8% | Elution rate [2, 11]: 93.8% | Elution rate ([2]; 410 mM arginine, pH 9.5, 94 μM peptide): 95.4% | Elution rate ([2]; 410 mM arginine, pH 10, 94 μM peptide): 98.8% | Elution rate [2, 12]: 89.0% | Elution rate ([2]; 489 mM lysine, pH 10, 94 μM peptide): 83.6% | Elution rate ([2]; 489 mM lysine, pH 11, 94 μM peptide): 85.9% | Elution rate [2, 13]: ≥ 85% | Elution rate [2, 6]: 98.6% | Radiochemical purity (HPLC) [3, 14]: 72.0% | Radiochemical purity (HPLC) [3, 15]: 75.4% | Radiochemical purity (HPLC) [3, 16]: 55.3% | Radiochemical purity (TLC) ([4]; 102.5 mM arginine pH 10, 30 minutes after labeling): 93.3% | Radiochemical purity (TLC) ([4]; 102.5 mM arginine pH 10, 90 minutes after labeling): 92.6% | Radiochemical purity (TLC) ([4]; 102.5 mM arginine pH 10, 180 minutes after labeling): 92.6% | Radiochemical purity (TLC) ([4]; 102.5 mM arginine pH 10, 360 minutes after labeling): 91.2% | Radiochemical purity (TLC) ([4]; 102.5 mM arginine pH 10, 24 hours after labeling): 88.9% | Radiochemical purity (TLC) ([4]; 102.5 mM arginine pH 10, 30 hours after labeling): 89.8% | Radiochemical purity (TLC) ([4]; 205 mM arginine pH 10, 30 minutes after labeling): 92.0% | Radiochemical purity (TLC) ([4]; 205 mM arginine pH 10, 90 minutes after labeling): 90.8% | Radiochemical purity (TLC) ([4]; 205 mM arginine pH 10, 180 minutes after labeling): 89.7% | Radiochemical purity (TLC) ([4]; 205 mM arginine pH 10, 360 minutes after labeling): 89.7% | Radiochemical purity (TLC) ([4]; 205 mM arginine pH 10, 24 hours after labeling): 88.3% | Radiochemical purity (TLC) ([4]; 205 mM arginine pH 10, 30 hours after labeling): 87.3% | Radiochemical purity (TLC) ([4]; 410 mM arginine pH 10 (Example 6), 30 minutes after labeling): 91.6% | Radiochemical purity (TLC) ([4]; 410 mM arginine pH 10 (Example 6), 90 minutes after labeling): 89.5% | Radiochemical purity (TLC) ([4]; 410 mM arginine pH 10 (Example 6), 180 minutes after labeling): 87.1% | Radiochemical purity (TLC) ([4]; 410 mM arginine pH 10 (Example 6), 360 minutes after labeling): 85.7% | Radiochemical purity (TLC) ([4]; 410 mM arginine pH 10 (Example 6), 24 hours after labeling): 86.5% | Radiochemical purity (TLC) ([4]; 410 mM arginine pH 10 (Example 6), 30 hours after labeling): 84.9% | Radiochemical purity (TLC) [4, 14]: 45.7% | Radiochemical purity (TLC) [4, 15]: 41.9% | Radiochemical purity (TLC) [4, 16]: 28.0% | Radiochemical purity (TLC) ([4]; Tc-99m labeling in phosphate buffer solution pH 10, room temperature, 90 minutes): 33.6%

formyl-Nle-Leu-Phe-Nle-Tyr-Lys(NH2)-ε(-Ser-D-Arg-DTPA*) (For-[Nle]LF[Nle]YKS[dR]; not fully specified (C-terminus); also: Lys(NH2): Lys α-carboxamide, Ser-D-Arg branch on Lys ε-amine, DTPA* at end of Ser-D-Arg branch) [Peptide 2]
Appearance [1, 5]: Colorless, | Appearance [1, 6]: Colorless, | Appearance [1, 7]: Whitish | Elution rate [2, 5]: 102.8% | Elution rate [2, 6]: 100.9%
